This passage reports Kcat and Km results from US8008547B2, “Glyphosate-N-acetyltransferase (GAT) genes” (E.I. duPont de Nemours, priority 2000, dated 2011).

A short description of the data set: Standard protocol for determination of kcat and KM (continuous spectrophotometric assay, Acetyl CoA hydrolysis at 235 nm). The settings on record: purified protein, about 23° C., 0.2 mM acetyl CoA; for Kcat: 20 mM HEPES pH 6.8, 10% ethylene glycol; for Km: pH 6.8, glyphosate 0.125 to 10 mM. The data set is classed as biochemical. The protocol: KM was calculated from the initial reaction rates obtained from concentrations of glyphosate ranging from 0.125 to 10 mM, using the Lineweaver-Burke transformation of the Michaelis-Menten equation. kcat/KM was determined by dividing the value determined for kcat by the value determined for KM.
Using this methodology, kinetic parameters for a number of GAT polypeptides exemplified herein were determined. For example, the kcat, KM and kcat/KM for the GAT polypeptide corresponding to SEQ ID NO:445 have been determined to be 322 min^−1, 0.5 mM and 660 mM^−1 min^−1, respectively, using the assay conditions described above. The kcat, KM and kcat/KM for the GAT polypeptide corresponding to SEQ ID NO:457 have been determined to be 118 min^−1, 0.1 mM and 1184 mM^−1 min^−1, respectively, using the assay conditions described above. The kcat, KM and kcat/KM for the GAT polypeptide corresponding to SEQ ID NO:300 have been determined to be 296 min^−1, 0.65 mM and 456 mM^−1 min^−1, respectively, using the assay conditions described above. One of skill in the art can use these numbers to confirm that a GAT activity assay is generating kinetic parameters for a GAT suitable for comparison with the values given herein. For example, the conditions used to compare the activity of GATs should yield the same kinetic constants for SEQ ID NO: 300, 445 and 457 (within normal experimental variance) as those reported herein, when the conditions are used to compare a test GAT with the GAT polypeptides exemplified herein. Kinetic parameters for a number of GAT polypeptide variants were determined according to this methodology and are provided in Table 3.

B1: SEQ ID NO: 445: GAT polypeptide (protein)
chain: MLEVKPINAEDTYELRHRILRPNQPIEACMYESDLLRGAFHLGGYYRGKLISIASFHQAEHSELQGQKQYQLRGMATLEGYREQKAGSSLIKHAEEILRKRGADLLWCNARTSASGYYKKLGFSEQGEIFETPPVGPHILMYKRIT
modifications: 0_5D3
notes: GAT polypeptide
As a reminder, the Km is the substrate concentration at which the rate is half of its maximum. With B1, the Kcat came to 5.37 s⁻¹ and the Michaelis-Menten constant (Km) was found to be 500 µM.

B2: SEQ ID NO: 457: GAT polypeptide (protein)
chain: MLEVKPINAEDTYELRHKILRPNQPLEVCMYETDLLRGAFHLGGFYRGKLISIASFHQAEHSELQGQKQYQLRGMATLEGYREQKAGSSLIKHAEEILRKRGADLLWCNARTSASGYYKKLGFSEQGEVFDTPPVGPHILMYKRIT
modifications: 10_4H4
notes: GAT polypeptide
For B2, the Kcat is 1.9727 s⁻¹ and the Km turned out to be 100 µM. The same molecule displayed a Kcat (listed as SEQ ID NO:457) of 1.97 s⁻¹.

B3: SEQ ID NO: 300: GAT polypeptide (protein)
chain: MIEVKPINAEDTYEIRHRILRPNQPLEACMYETDSLGGTFHLGGYYRGKLISIASFNQAEHPELEGQKQYQLRGMATLEGYREQKAGSTLIRHAEELLRKKGADLLWCNARTSASGYYKKLGFSEQGEVYDTPPVGPHILMYKKLT
modifications: 13_6D10
notes: GAT polypeptide
B3: the Kcat stood at 4.942 s⁻¹ and the Km was 650 µM. Under “listed as SEQ ID NO:300”, this molecule showed a Kcat of 4.93 s⁻¹.

B4: SEQ ID NO: 357: GAT polypeptide (protein)
chain: MIEVRPINAEDTYEIRHRILRPNQPLEACMYETDLLGGTFHLGGYYRGKLISIASFHQAEHSELEGQKQYQLRGMATLEGYREQKAGSTLIRHAEELLRKKGADLLWCNARTSASGYYKKLGFSEQGEAYDIPPIGPHILMYKKLT
modifications: 3B_10C4
notes: GAT polypeptide
B4: the Kcat is 0.413 s⁻¹ and the Michaelis constant (Km) is 1600 µM.

B5: SEQ ID NO: 361: GAT polypeptide (protein)
chain: MIEVKPINAEDTYEIRHRILRPNQPLEACMYETDLLGGTFHLGGYYRGKLISIASFHQAEHSELEGQKQYQLRGMATLEGYREQKAGSTLIRHAEELLRKKGADLLWCNARTSASGYYEKLGFSKQGEVYDIPPIGPHILMYKKLT
modifications: 3B_2E5
notes: GAT polypeptide
Take B5: the Kcat was 0.273 s⁻¹ and the Km amounted to 1300 µM.

B6: SEQ ID NO: 362: GAT polypeptide (protein)
chain: MIEVKPINAEDTYEIRHRILRPNQPLEACMYETDLLGGTFHLGGYYRGKLISIASFHQAEHSELEGQKQYQLRGMATLEGYREQKAGSTLIRHAEELLRKKGADLLWCNARISASGYYKKLGFSEQGGVYDIPPVGPHILMYKKLT
modifications: 3C_10H3
notes: GAT polypeptide
In the case of B6, the Kcat was 0.565 s⁻¹ and the Km stood at 1100 µM.

B7: SEQ ID NO: 366: GAT polypeptide (protein)
chain: MIEVKPINAEDTYEIRHRILRPNQPLEACKYETDLLGGTFHLGGYYRGKLISIASFHQAEHSELEGQKQYQLRGMATLEEYREQKAGSTLIRHAEELLRKKGADLLWCNARTSASGYYKKLGFSEQGEVYDIPPIGPHILMYKKLT
modifications: 4A_1C2
notes: GAT polypeptide
Consider B7, for which the Kcat stood at 0.34 s⁻¹ and the Km is 1200 µM.

B8: SEQ ID NO: 370: GAT polypeptide (protein)
chain: MIEVKPINAEDTYEIRHRILRPNQPLEACKYETDLLGGTFHLGGYYRGKLISIASFHQAEHPELEGQKQYQLRGMATLEEYREQKAGSTLIRHAEELLRKKGADLLWCNARTSASGYYEKLGFSEQGEVYDIPPIGPHILMYKKLT
modifications: 4B_17A1
notes: GAT polypeptide
B8: the Kcat was found to be 0.318 s⁻¹ and the Km came to 1100 µM.

B9: SEQ ID NO: 369: GAT polypeptide (protein)
chain: MIEVKPINAEDTYEIRHRILRPNQPLEACKYETDLLGGTFHLGGYYRGKLISIASFHQAEHSELEGQKQYQLRGMATLEGYREQKAGSTLIRHAEELLRKKGADLLWCNARTSASGYYKKLGFSEQGGVYDIPPIGPHILMYKKLT
modifications: 4B_16E1
notes: GAT polypeptide
Consider B9, for which the Kcat was found to be 0.283 s⁻¹ and the Michaelis constant (Km) was determined as 1000 µM.

B10: SEQ ID NO: 363: GAT polypeptide (protein)
chain: MIEVKPINAEDTYEIRHRILRPNQPLEACMYETDLLGGTFHLGGYYRGKLISIASFHQAEHSELEGQKQYQLRGMATLEGYRGQKAGSTLIRHAEELLRKKGADLLWCNARTSASGYYEKLGFSEQGEVYDIPPIGPHILMYKKLT
modifications: 3C_12H10
notes: GAT polypeptide
For the molecule B10, the Kcat turned out to be 0.152 s⁻¹ and the Km turned out to be 1200 µM.

B11: SEQ ID NO: 360: GAT polypeptide (protein)
chain: MIEVKPINAEDTYEIRHRILRPNQPLEACMYETDLLGGAFHLGGYYRGKLISIASFHPAEHSELEGQKQYQLRGMATLEGYREQKAGSTLIRHAEELLRKKGADLLWCNARISASGYYEKLGFSEQGEVYDIPPIGPHILMYKKLT
modifications: 3B_12D10
notes: GAT polypeptide
For B11, the Kcat stood at 0.09 s⁻¹ and the Km turned out to be 900 µM.

B12: SEQ ID NO: 358: GAT polypeptide (protein)
chain: MIEVKPINAEDTYEIRHRILRPNQPLEACMYETDLLGGTFHLGGYYRGKLISIASFHQAEHSELEGQKQYQLRGMATLEGYREQKAGSTLIRHAEELLRKKGADLLWCNARTSASGYYKKLGFSEQGGVYDIPPIGPHILMYKKLT
modifications: 3B_10G7
notes: GAT polypeptide
B12: the Kcat came to 0.327 s⁻¹ and the Km was 1000 µM.

B13: SEQ ID NO: 367: GAT polypeptide (protein)
chain: MIEVKPINAEDTYEIRHRILRPNQPLEACKYETDLLGGTFHLGGYYRGKLISIASFHQAEHPELEGQKQYQLRGMATLEEYREQKAGSTLIRHAEELLRKKGADLLWCNARISASGYYEKLGFSEQGEVYDIPPIGPHILMYKKLT
modifications: 4B_13E1
notes: GAT polypeptide
As for B13, the Kcat is 0.62 s⁻¹ and the Km was determined as 2000 µM.

B14: SEQ ID NO: 368: GAT polypeptide (protein)
chain: MIEVKPINAEDTYEIRHRILRPNQPLEACMYETDLLGGTFHLGGYYRGKLISIASFHQAEHSELEGQKQYQLRGMATLEGYREQKAGSTLIRHAEELLRKKGADLLWCNARTSASGYYKKLGFSEQGGVYDIPPIGPYILMYKKLT
modifications: 4B_13G10
notes: GAT polypeptide
For B14, the Kcat is 0.582 s⁻¹ and the Michaelis-Menten constant (Km) turned out to be 7600 µM.

B15: SEQ ID NO: 359: GAT polypeptide (protein)
chain: MIEVKPINAEDTYEIRHRILRPNQPLEACMYETDLLGGTFHLGGYYRGKLISIASFHQAEHSELEGQKQYQLRGMATLEGYREQKAGSTLIRHAEELLRKKGADLLWCNARTSASGYYKKLGFSEQGEVYDIPPIGPHILMYKKLT
modifications: 3B_12B1
notes: GAT polypeptide
As for B15, the Kcat came out at 0.38 s⁻¹ and the Michaelis constant (Km) is 1200 µM.

B16: SEQ ID NO: 267: GAT polypeptide (protein)
chain: MIEVKPINAEDTYEIRHRILRPNQPLEACKYETDLLRGAFHLGGYYRGKLVSIASFHQAEHPELEGQKQYQLRGMATLEGYREQKAGSTLIRHAEALLRKKGADLLWCNARTSASGYYKKLGFSEQGEVYDTPPAGPHILMYKKLT
modifications: 14_2F11
notes: GAT polypeptide
Turning to B16, the Kcat turned out to be 2.282 s⁻¹ and the Michaelis constant (Km) stood at 1700 µM.

B17: SEQ ID NO: 365: GAT polypeptide (protein)
chain: MIEVKPINAEDTYEIRHRILRPNQPLEACMYETDLLGGTFHLGGYYRGKLISIASFHQAEHPELEGQKQYQLRGMATLEGYREQKAGSTLIRHAEELLRKKGADLLWCNARTSASGYYEKLGFSEQGEVYDIPPIGPHILMYKKLT
modifications: 4A_1B11
notes: GAT polypeptide
In the case of B17, the Kcat turned out to be 0.387 s⁻¹ and the Km was 1600 µM.

B18: SEQ ID NO: 364: GAT polypeptide (protein)
chain: MIEVKPINAEDTYEIRHRILRPNQPLEACMYETDLLGGTFHLGGYYQDRLISIASFHQAEHSELEGQKQYQLRGMATLEGYREQKAGSTLIRYAEELLRKKGADLLWCNARISASGYYEKLGFSEQGEVYDIPPIGPHILMYKKLT
modifications: 3C_9H8
notes: GAT polypeptide
As to B18, the Kcat turned out to be 0.195 s⁻¹ and the Km was 1000 µM.

B19: SEQ ID NO: 371: GAT polypeptide (protein)
chain: MIEVNPINAEDTYEIRHRILRPNQPLEACMYETDLLGGTSHLGGYYRGKLISIASFHNAEHSELDGQKQYQLRGMATLEGYREQKAGSTLIRHAEELLRKKGADLLWCNARTSVSGYYEKLGFSEQGEVYDIPPIGPHISMYKKLT
modifications: 4B_18F11
notes: GAT polypeptide
B19: the Kcat came out at 0.243 s⁻¹ and the Michaelis-Menten constant (Km) was determined as 1700 µM.
